Target: T1, HA-SUN2 (human (cDNA from 293T or A2780 cells), UniProt Q9UH99 1-717, N-glycosylation (sites not given))
T1 construct: SAD1/UNC84 domain protein-2 (SUN2), cloned from cDNAs of 293T or A2780 cells; also called SAD1/UNC84 domain protein-2; source: HEK293T, transiently transfected; immunoprecipitated with anti-HA resin and eluted with HA peptide, or in lysate
T1 sequence (looked up): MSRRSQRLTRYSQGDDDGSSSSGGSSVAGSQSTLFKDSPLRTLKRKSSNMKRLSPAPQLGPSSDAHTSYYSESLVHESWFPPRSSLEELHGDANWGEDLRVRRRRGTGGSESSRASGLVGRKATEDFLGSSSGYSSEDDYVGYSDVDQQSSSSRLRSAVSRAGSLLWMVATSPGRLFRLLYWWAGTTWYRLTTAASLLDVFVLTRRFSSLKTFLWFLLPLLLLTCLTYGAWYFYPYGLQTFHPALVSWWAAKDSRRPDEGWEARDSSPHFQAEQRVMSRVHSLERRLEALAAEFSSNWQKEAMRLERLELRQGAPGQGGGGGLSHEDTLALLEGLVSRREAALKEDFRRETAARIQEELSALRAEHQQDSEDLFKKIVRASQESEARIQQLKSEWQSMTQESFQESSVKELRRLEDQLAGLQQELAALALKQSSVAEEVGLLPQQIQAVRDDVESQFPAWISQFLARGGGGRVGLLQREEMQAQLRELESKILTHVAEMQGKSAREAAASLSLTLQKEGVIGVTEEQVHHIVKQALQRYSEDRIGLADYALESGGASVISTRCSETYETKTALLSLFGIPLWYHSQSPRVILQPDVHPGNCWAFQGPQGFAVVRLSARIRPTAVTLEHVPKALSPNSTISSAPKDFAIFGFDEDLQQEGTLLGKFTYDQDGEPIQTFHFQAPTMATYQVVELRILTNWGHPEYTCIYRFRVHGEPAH
Experiment: pull-down; GST or GST-FBXO2 incubated with HA-SUN2 (anti-HA resin, eluted with HA peptide) in PB buffer (20 mM HEPES pH 7.5, 130 mM KCl, 5 mM MgCl2, 1 mM DTT, 0.5 mM EDTA, 0.05% NP40) at 30 °C for 2 h, then glutathione beads; the legend speaks of lysed cells
Conditions: both partners purified

B1: GST-FBXO2 WT (natural protein, human, UniProt Q9UK22 1-296, looked up)
chain: MDGDGDPESVGQPEEASPEEQPEEASAEEERPEDQQEEEAAAAAAYLDELPEPLLLRVLAALPAAELVQACRLVCLRWKELVDGAPLWLLKCQQEGLVPEGGVEEERDHWQQFYFLSKRRRNLLRNPCGEEDLEGWCDVEHGGDGWRVEELPGDSGVEFTHDESVKKYFASSFEWCRKAQVIDLQAEGYWEELLDTTQPAIVVKDWYSGRSDAGCLYELTVKLLSEHENVLAEFSSGQVAVPQDSDGGGWMEISHTFTDYGPGVRFVRFEHGGQDSVYWKGWFGARVTNSSVWVEP
notes: F-box protein FBXO2, human; also called GST tagged FBXO2
Question: Does B1 bind?
Answer: binds

Source: article PMC9079088, “FBXO2 targets glycosylated SUN2 for ubiquitination and degradation to promote ovarian cancer development” (Cell Death & Disease, 2022)
